Reference: patent US20200392227A1 (LYVGEN BIOPHARMA, published 2020)
Substitutions are numbered along the chain they refer to. Read-outs that look alike come from different tables or passages of the source.

T1: human FcRIIB/C protein (MednaBio, E1034) (human, UniProt P31994 43-217, limits assumed)
T1 construct: Bought as FcRIIB/C; also called FcγRIIB; CD32B
T1 sequence (looked up): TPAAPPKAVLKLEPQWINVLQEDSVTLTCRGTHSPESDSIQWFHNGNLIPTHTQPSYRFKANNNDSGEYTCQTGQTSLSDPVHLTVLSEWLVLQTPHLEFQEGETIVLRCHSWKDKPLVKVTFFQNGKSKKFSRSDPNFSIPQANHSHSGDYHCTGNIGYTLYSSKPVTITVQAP

T2: human FcRIIA protein (MednaBio, E1033) (human, UniProt P12318 34-218, limits assumed)
T2 construct: Bought; also called FcγRIIA
T2 sequence (looked up): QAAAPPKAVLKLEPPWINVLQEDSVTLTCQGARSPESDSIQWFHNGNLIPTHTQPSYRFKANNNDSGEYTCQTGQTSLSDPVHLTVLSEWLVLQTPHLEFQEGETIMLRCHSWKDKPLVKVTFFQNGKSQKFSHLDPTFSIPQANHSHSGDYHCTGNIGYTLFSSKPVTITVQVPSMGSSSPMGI

T3: human FcγRIIA(R131) expressed on CHO cells (human, UniProt P12318 34-317)
T3 construct: whole, on cells
T3 sequence (looked up): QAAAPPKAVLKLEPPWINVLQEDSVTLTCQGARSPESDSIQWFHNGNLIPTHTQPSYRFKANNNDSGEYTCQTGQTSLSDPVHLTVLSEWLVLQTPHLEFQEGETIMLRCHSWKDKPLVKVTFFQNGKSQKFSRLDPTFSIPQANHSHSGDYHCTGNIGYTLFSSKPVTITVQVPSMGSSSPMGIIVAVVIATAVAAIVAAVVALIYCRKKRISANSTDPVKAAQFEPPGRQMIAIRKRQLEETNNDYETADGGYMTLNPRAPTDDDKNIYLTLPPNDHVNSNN

T4: human FcγRIIA(H131) expressed on CHO cells (human, UniProt P12318 34-317)
T4 construct: whole, on cells
T4 sequence (looked up): T3 sequence (looked up) with R134H

T5: human FcγRIIC expressed on CHO cells (human, UniProt P31995 43-323)
T5 construct: whole, on cells
T5 sequence (looked up): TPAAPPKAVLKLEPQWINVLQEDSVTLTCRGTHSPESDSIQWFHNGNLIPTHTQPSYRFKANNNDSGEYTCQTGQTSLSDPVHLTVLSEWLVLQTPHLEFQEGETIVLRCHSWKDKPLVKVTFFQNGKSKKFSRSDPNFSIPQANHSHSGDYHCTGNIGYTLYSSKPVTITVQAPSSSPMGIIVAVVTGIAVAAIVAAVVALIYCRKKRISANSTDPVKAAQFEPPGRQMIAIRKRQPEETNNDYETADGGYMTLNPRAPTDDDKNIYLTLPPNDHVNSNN

B1: anti-CD137 IgG4 with Fc variant G4m2 (antibody)
heavy: EVQLVQSGAEVKKPGESLRISCKGSGYSFSTYWISWVRQMPGKGLEWMGKIYPGDSYTNYSPSFQGQVTISADKSISTAYLQWSSLKASDTAMYYCARGYGIFDYWGQGTLVTVSSASTKGPSVFPLAPCSRSTSESTAALGCLVKDYFPEPVTVSWNSGALTSGVHTFPAVLQSSGLYSLSSVVTVPSSSLGTKTYTCNVDHKPSNTKVDKRVESKYGPPCPPCPAPEFLGPSVFLFPPKPKDTLMISRTPEVTCVVVDVSQEDPEVQFNWYVDGVEVHNAKTKPREEQFNSTYRVVSVLTVLHQDWLNGKEYKCKVSNKGLPSSIEKTISKAKGQPREPQVYTLPPSQEEMTKNQVSLTCLVKGFYPSDIAVEWESNGQPENNYKTTPPVLDSDGSFFLYSRLTVDKSRWQEGNVFSCSVMHEALHNHYTQKSLSLSLGK
light: SYELTQPPSVSVSPGQTASITCSGDNIGDQYAHWYQQKPGQSPVLVIYQDKNRPSGIPERFSGSNSGNTATLTISGTQAMDEADYYCATYTGFGSLAVFGGGTKLTVLGQPKAAPSVTLFPPSSEELQANKATLVCLISDFYPGAVTVAWKADSSPVKAGVETTTPSKQSNNKYAASSYLSLTPEQWKSHRSYSCQVTHEGSTVEKTVAPTECS
notes: copies: 2 + 2
B2: anti-CD137 IgG1 with Fc variant G1m28 (antibody)
heavy: EVQLVQSGAEVKKPGESLRISCKGSGYSFSTYWISWVRQMPGKGLEWMGKIYPGDSYTNYSPSFQGQVTISADKSISTAYLQWSSLKASDTAMYYCARGYGIFDYWGQGTLVTVSSASTKGPSVFPLAPSSKSTSGGTAALGCLVKDYFPEPVTVSWNSGALTSGVHTFPAVLQSSGLYSLSSVVTVPSSSLGTQTYICNVNHKPSNTKVDKKVEPKSCDKTHTCPPCPAPELLGPSVFLFPPKPKDTLMISRTPEVTCVVVDVSHEDPEVKFNWYVDGVEVHNAKTKPREEQYNSTYRVVSVLTVLHQDWLNGKEYKCKVSNKAFPAPIEKTISKAKGQPREPQVYTLPPSREEMTKNQVSLTCLVKGFYPSDIAVEWESNGQPENNYKTTPPVLDSDGSFFLYSKLTVDKSRWQQGNVFSCSVMHEALHNHYTQKSLSLSPGK
light: B1 light
notes: copies: 2 + 2
B3: anti-CD137 IgG1 with Fc variant G1m27 (antibody)
heavy: B2 heavy with S265E, F326L
light: B1 light
notes: copies: 2 + 2
B4: anti-CD137 IgG1 with Fc variant G1m25 (antibody)
heavy: B2 heavy with V271E, F326L
light: B1 light
notes: copies: 2 + 2

What was measured:
[1] = molecular target: T6, human FcRIIIB protein (MednaBio, E1037) (human, UniProt O75015 17-200); experiment: BLI
T6 construct: Bought; also called FcγRIIIB; FcgRIIIB

[2] = molecular target: T7, human FcRn protein (MednaBio, E1032) (human, UniProt P55899 24-297; P61769 21-119); experiment: BLI
T7 construct: Bought; assays at pH 6

[3] = molecular target: T8, human FcRIIIA-V158 protein (MednaBio, E1035) (human, UniProt P08637 17-208); experiment: BLI
T8 construct: Bought; also called FcγRIIIA(V); FcgRIIIA(V)

[4] = molecular target: T1, human FcRIIB/C protein (MednaBio, E1034); experiment: BLI
[5] = molecular target: T2, human FcRIIA protein (MednaBio, E1033); experiment: BLI
[6] = molecular target: T9, human FcRIIIA-F158 protein (MednaBio, E1036) (human, UniProt P08637 17-208); experiment: BLI
T9 construct: Bought; also called FcγRIIIA(F)

[7] = molecular target: T10, human FcRI protein (MednaBio, E1031) (human, UniProt P12314 16-288, limits assumed); experiment: BLI
T10 construct: Bought; loaded on anti-penta-HIS biosensors; also called FcγRI

[8] = molecular target: T3, human FcγRIIA(R131) expressed on CHO …; experiment: FACS, CHO cells expressing FcγRIIA(R131)
Method: (§1) For FACS analysis of the IgG mutants' binding to different FcγRs, FcγR overexpressing CHO cells were harvested using trypsin-EDTA and were suspended in cold staining buffer (3% BSA in PBS). Test IgG mutants, which were diluted in staining buffer, were added into the cells. The mixture was incubated 4° C. for 2 hours, and then washed twice with cold staining buffer and re-suspended in PE-labeled anti-human IgG followed by incubation at 4° C. for 2 hours. The mixture was washed twice with staining buffer and re-suspended in 2% PFA in PBS for FACS.

[9] = molecular target: T4, human FcγRIIA(H131) expressed on CHO …; experiment: FACS, CHO cells expressing FcγRIIA(H131)
Method: as §1

[10] = molecular target: T11, human FcγRI expressed on CHO cells (human, UniProt P12314 16-374); experiment: FACS, CHO cells expressing FcγRI
T11 construct: whole, on cells
In short: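 Trypsin-harvested CHO cells overexpressing each FcγR were incubated 2 h at 4 °C with IgG mutants in 3% BSA/PBS. Bound IgG was detected with PE-labeled anti-human IgG (2 h, 4 °C), then cells were fixed in 2% PFA and analysed by flow cytometry.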

[11] = molecular target: T4, human FcγRIIA(H131) expressed on CHO …; experiment: FACS, CHO cells expressing FcγRIIA(H131); remark: listed apart in the source
Method: FIGS. 1A-1W are charts showing binding activity of various IgG variants as indicated to different types of Fcγ receptors expressed on CHO-K1 cells at the various concentrations as indicated. The concentrations of each IgG variant, from left to right, are 0 μg/ml, 0.3 μg/ml, 1 μg/ml, 3 μg/ml, and 10 μg/ml in FIGS. 1A-1C, 1E-J, 1L-1M, 1P-1R, and 1T-1V. For FIGS. 1D, 1K, 10, 1S, and 1w the bars, from left to right, correspond to the following concentrations of IgG variant: 0.3 μg/ml, 1 μg/ml, 3 μg/ml, and 10 μg/ml.
as §1

[12] = molecular target: T6, human FcRIIIB protein (MednaBio, E1037); experiment: BLI; remark: listed apart in the source
In short: (§2)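 Binding was measured by biolayer interferometry on an Octet Red96 System, with commercial human Fc receptor proteins loaded at 20 μg/mL onto anti-penta-HIS biosensors. Sensors were dipped into an 8-point 1:3 dilution series of test IgG starting at 300 nM in PBS with 0.1% BSA and 0.02% Tween-20. Fcγ receptor assays ran at pH 7.2 and FcRn assays at pH 6. Kd, kon and koff came from global fitting to a 1:1 binding model.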

[13] = molecular target: T7, human FcRn protein (MednaBio, E1032); experiment: BLI; remark: listed apart in the source
In short: as §2

[14] = molecular target: T8, human FcRIIIA-V158 protein (MednaBio, …); experiment: BLI; remark: listed apart in the source
In short: as §2

[15] = molecular target: T1, human FcRIIB/C protein (MednaBio, E1034); experiment: BLI; remark: listed apart in the source
In short: as §2

[16] = molecular target: T2, human FcRIIA protein (MednaBio, E1033); experiment: BLI; remark: listed apart in the source
In short: as §2

[17] = molecular target: T9, human FcRIIIA-F158 protein (MednaBio, …); experiment: BLI; remark: listed apart in the source
In short: as §2

[18] = molecular target: T10, human FcRI protein (MednaBio, E1031); experiment: BLI; remark: listed apart in the source
In short: as §2

[19] = molecular target: T5, human FcγRIIC expressed on CHO cells; experiment: FACS, CHO cells expressing FcγRIIC
Method: as §1

T6 sequence (O75015 17-200 limits assumed): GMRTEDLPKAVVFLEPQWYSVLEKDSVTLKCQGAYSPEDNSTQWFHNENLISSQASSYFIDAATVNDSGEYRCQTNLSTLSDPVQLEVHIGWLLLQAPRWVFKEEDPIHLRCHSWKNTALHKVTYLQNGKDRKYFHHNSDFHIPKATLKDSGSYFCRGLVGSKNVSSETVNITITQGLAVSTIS
T7 sequence (P55899 24-297 limits assumed, form in doubt, chain 1 of 2): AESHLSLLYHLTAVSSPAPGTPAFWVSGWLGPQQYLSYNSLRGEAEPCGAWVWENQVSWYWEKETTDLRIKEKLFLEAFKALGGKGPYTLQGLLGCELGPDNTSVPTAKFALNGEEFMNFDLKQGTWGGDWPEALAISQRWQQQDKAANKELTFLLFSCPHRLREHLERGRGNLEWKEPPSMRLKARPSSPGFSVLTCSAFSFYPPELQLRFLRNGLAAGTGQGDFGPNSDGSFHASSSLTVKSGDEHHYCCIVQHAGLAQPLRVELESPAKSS
T7 sequence (P61769 21-119 limits assumed, form in doubt, chain 2 of 2): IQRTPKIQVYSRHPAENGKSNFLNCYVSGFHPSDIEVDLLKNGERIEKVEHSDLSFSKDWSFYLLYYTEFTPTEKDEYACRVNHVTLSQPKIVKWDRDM
T9 sequence (P08637 17-208 limits assumed): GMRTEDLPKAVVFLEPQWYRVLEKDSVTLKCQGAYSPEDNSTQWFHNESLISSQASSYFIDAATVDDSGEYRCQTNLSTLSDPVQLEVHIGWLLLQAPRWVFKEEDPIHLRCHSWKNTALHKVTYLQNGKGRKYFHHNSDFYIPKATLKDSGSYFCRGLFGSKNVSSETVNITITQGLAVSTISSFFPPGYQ
T10 sequence (P12314 16-288 limits assumed): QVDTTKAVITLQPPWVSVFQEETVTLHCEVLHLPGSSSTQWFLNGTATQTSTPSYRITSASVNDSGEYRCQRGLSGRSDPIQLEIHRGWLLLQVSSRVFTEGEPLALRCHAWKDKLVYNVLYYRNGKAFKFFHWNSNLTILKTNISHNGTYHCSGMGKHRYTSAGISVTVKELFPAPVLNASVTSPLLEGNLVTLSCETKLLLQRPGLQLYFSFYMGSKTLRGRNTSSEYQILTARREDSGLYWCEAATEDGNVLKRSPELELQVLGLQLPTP
T8 sequence (P08637 17-208 F176V): as the sequence (P08637 17-208 limits assumed) above, with F160V counted along it
T11 sequence (P12314 16-374): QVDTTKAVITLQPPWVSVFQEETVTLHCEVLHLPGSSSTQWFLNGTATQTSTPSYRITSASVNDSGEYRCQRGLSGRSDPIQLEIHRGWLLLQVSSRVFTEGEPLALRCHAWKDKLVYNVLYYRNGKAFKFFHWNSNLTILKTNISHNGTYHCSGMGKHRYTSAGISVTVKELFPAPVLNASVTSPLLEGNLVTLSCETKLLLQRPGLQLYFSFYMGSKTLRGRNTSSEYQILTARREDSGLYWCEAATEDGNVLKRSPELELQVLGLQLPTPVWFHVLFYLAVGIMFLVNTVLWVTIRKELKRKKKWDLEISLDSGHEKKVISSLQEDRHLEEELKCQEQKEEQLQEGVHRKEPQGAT

| Binder | binding result [8] | binding result [11] | binding result [12] | Kd [13] | koff [13] | kon [13] | binding result [14] | Kd [15] | koff [15] | kon [15] | binding result [16] | binding result [17] | binding result [18] | further results |
| --- | --- | --- | --- | --- | --- | --- | --- | --- | --- | --- | --- | --- | --- | --- |
| B1 | no binding (tested: 10 ug/ml) |  |  |  |  |  |  |  |  |  |  |  |  | binding result [1]: no binding (tested: 300 nM); Kd [2]: 9.8 nM; koff [2]: 0.013 s⁻¹; kon [2]: 1.4e+06 M⁻¹ s⁻¹; binding result [3]: no binding (tested: 300 nM); Kd [4]: 150 nM; koff [4]: 0.046 s⁻¹; kon [4]: 310000 M⁻¹ s⁻¹; binding result [5]: no binding (tested: 300 nM); binding result [6]: no binding (tested: 300 nM); binding result [7]: no binding (tested: 300 nM); binding result [9]: no binding (tested: 10 ug/ml); binding result [10]: no binding (tested: 10 ug/ml) |
| B2 | no binding (tested: 10 ug/ml) | no binding (tested: 10 ug/ml) | no binding (tested: 300 nM) | 17 nM | 0.011 s⁻¹ | 650000 M⁻¹ s⁻¹ | no binding (tested: 300 nM) | 410 nM | 0.2 s⁻¹ | 480000 M⁻¹ s⁻¹ | no binding (tested: 300 nM) | no binding (tested: 300 nM) |  | Kd [18]: 240 nM; koff [18]: 0.16 s⁻¹; kon [18]: 640000 M⁻¹ s⁻¹ |
| B3 |  | no binding (tested: 10 ug/ml) | no binding (tested: 300 nM) | 16 nM | 0.01 s⁻¹ | 650000 M⁻¹ s⁻¹ | no binding (tested: 300 nM) | 410 nM | 0.1 s⁻¹ | 260000 M⁻¹ s⁻¹ | no binding (tested: 300 nM) | no binding (tested: 300 nM) | no binding (tested: 300 nM) |  |
| B4 | no binding (tested: 10 ug/ml) | no binding (tested: 10 ug/ml) | no binding (tested: 300 nM) | 15 nM | 0.0093 s⁻¹ | 620000 M⁻¹ s⁻¹ | no binding (tested: 300 nM) |  |  |  | no binding (tested: 300 nM) | no binding (tested: 300 nM) | no binding (tested: 300 nM) | binding result [19]: no binding (tested: 10 ug/ml); binding result [15]: no binding (tested: 300 nM) |
